Results from publication PMC9482650, “Quantitative fragmentomics allow affinity mapping of interactomes” (Nature Communications, 2022).

T1: RHPN1, Q8TCX5
T1 sequence (Q8TCX5 508-602, limits assumed, looked up): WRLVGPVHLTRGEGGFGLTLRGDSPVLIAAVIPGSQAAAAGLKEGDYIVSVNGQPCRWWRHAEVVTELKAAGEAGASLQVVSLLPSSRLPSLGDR

T2: GRIP1_4, Q9Y3R0
T2 sequence (Q9Y3R0 467-571, limits assumed, looked up): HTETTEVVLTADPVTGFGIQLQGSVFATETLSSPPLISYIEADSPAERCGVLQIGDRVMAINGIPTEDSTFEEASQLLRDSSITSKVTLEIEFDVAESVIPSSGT

T3: DLG3_1, Q92796
T3 sequence (Q92796 125-227, limits assumed, looked up): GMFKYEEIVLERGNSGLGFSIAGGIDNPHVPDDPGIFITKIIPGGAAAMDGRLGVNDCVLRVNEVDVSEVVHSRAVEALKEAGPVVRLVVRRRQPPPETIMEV

T4: GRIP1_2, Q9Y3R0
T4 sequence (Q9Y3R0 145-248, limits assumed, looked up): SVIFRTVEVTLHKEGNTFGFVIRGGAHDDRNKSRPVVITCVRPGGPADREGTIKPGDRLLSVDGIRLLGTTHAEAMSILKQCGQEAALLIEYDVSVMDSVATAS

T5: MPDZ_10, O75970
T5 sequence (O75970 1624-1722, limits assumed, looked up): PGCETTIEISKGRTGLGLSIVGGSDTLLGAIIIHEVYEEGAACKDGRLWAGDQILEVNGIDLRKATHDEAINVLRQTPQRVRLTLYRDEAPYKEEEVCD

T6: LIN7B, Q9HAP6
T6 sequence (Q9HAP6 88-185, limits assumed, looked up): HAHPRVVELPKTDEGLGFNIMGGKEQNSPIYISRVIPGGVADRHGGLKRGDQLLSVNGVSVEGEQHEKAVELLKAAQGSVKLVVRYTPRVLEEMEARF

T7: DLG3_2, Q92796
T7 sequence (Q92796 221-321, limits assumed, looked up): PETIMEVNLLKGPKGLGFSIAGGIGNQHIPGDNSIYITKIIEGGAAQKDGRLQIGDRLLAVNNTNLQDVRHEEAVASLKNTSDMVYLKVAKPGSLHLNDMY

T8: SYNJ2BP, P57105
T8 sequence (P57105 8-110, limits assumed, looked up): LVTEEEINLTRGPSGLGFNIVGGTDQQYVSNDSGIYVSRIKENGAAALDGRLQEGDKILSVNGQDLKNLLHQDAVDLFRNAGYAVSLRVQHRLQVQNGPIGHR

T9: PARD3B_1, Q8TEW8
T9 sequence (Q8TEW8 196-299, limits assumed, looked up): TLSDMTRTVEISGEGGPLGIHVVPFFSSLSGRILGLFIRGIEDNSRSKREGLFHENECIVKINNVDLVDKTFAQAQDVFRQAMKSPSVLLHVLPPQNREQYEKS

T10: HTRA3, P83110
T10 sequence (P83110 354-453, limits assumed, looked up): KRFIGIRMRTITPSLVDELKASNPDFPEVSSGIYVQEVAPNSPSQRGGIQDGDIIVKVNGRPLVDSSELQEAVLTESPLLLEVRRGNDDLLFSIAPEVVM

T11: PTPN13_1, Q12923
T11 sequence (Q12923 1088-1188, limits assumed, looked up): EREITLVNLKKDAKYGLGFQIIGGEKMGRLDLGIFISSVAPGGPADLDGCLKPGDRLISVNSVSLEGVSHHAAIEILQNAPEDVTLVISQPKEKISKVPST

T12: DFNB31_1, Q9P202
T12 sequence (Q9P202 135-233, limits assumed, looked up): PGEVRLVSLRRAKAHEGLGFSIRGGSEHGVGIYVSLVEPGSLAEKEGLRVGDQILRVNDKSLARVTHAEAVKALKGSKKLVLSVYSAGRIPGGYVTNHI


What follows are binders tested against GORASP2, Q9H8Y8 (assay: holdup assay). Conditions: plain residues with an end cap or a label only (N-terminal biotin on a linker: ado-ado).
Set-up: key: below the threshold = too weak to quantify, mostly under pKd 3.1 to 4
TLPRKRMSSI [GPRC6A, Q5T6X5] was tested, and the pKd was “below the threshold”.
Work on TACCHSETVV [TGFA, P01135] yielded a pKd of 4.05.

The binders below were run against T1, RHPN1, Q8TCX5 (assay: holdup assay). Conditions: plain residues with an end cap or a label only (N-terminal biotin on a linker: ado-ado).
Set-up: key: below the threshold = too weak to quantify, mostly under pKd 3.1 to 4
In the case of TLPRKRMSSI [GPRC6A, Q5T6X5], the pKd is reported as “below the threshold”.
With TACCHSETVV [TGFA, P01135] the pKd was 4.24.

Each binder was assayed against TJP1_3, Q07157 (assay: holdup assay). Conditions: plain residues with an end cap or a label only (N-terminal biotin on a linker: ado-ado).
Sequence of TJP1_3, Q07157 (Q07157 416-512): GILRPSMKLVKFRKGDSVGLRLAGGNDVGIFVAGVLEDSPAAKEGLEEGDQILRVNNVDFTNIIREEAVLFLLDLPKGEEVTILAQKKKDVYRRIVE
Set-up: key: below the threshold = too weak to quantify, mostly under pKd 3.1 to 4
With TLPRKRMSSI [GPRC6A, Q5T6X5] the pKd was “below the threshold”.
With TACCHSETVV [TGFA, P01135] the pKd was “below the threshold”.

The binders below were run against NOS1, P29475 (assay: holdup assay). Conditions: plain residues with an end cap or a label only (N-terminal biotin on a linker: ado-ado).
Sequence of NOS1, P29475 (P29475 9-101): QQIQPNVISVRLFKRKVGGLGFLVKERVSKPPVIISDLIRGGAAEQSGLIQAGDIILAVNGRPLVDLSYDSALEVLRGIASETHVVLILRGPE
Set-up: key: below the threshold = too weak to quantify, mostly under pKd 3.1 to 4
With TLPRKRMSSI [GPRC6A, Q5T6X5] the pKd was “below the threshold”.
With TACCHSETVV [TGFA, P01135] the pKd was “below the threshold”.

These binders were tested against T2, GRIP1_4, Q9Y3R0 (assay: holdup assay). Conditions: plain residues with an end cap or a label only (N-terminal biotin on a linker: ado-ado).
Set-up: key: below the threshold = too weak to quantify, mostly under pKd 3.1 to 4
In the case of TLPRKRMSSI [GPRC6A, Q5T6X5], the pKd is reported as “below the threshold”.
In the case of TACCHSETVV [TGFA, P01135], the pKd is reported as “below the threshold”.

Each binder was assayed against NHERF4_4, Q86UT5 (assay: holdup assay). Conditions: plain residues with an end cap or a label only (N-terminal biotin on a linker: ado-ado).
Sequence of NHERF4_4, Q86UT5 (Q86UT5 464-550): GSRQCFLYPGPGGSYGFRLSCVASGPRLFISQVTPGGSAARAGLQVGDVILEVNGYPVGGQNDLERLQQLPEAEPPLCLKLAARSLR
Set-up: key: below the threshold = too weak to quantify, mostly under pKd 3.1 to 4
In the case of TLPRKRMSSI [GPRC6A, Q5T6X5], the pKd is reported as 3.88.
With TACCHSETVV [TGFA, P01135] the pKd was “below the threshold”.

What follows are binders tested against T3, DLG3_1, Q92796 (assay: holdup assay). Conditions: plain residues with an end cap or a label only (N-terminal biotin on a linker: ado-ado).
Set-up: key: below the threshold = too weak to quantify, mostly under pKd 3.1 to 4
For TLPRKRMSSI [GPRC6A, Q5T6X5], the pKd was “below the threshold”.
Binder TACCHSETVV [TGFA, P01135] has a pKd of 4.19.

These binders were tested against DLG1_3, Q12959 (assay: holdup assay). Conditions: plain residues with an end cap or a label only (N-terminal biotin on a linker: ado-ado).
Sequence of DLG1_3, Q12959 (Q12959 457-571): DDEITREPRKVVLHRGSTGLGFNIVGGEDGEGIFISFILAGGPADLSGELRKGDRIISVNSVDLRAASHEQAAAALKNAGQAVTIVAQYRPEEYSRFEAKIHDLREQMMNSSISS
Set-up: key: below the threshold = too weak to quantify, mostly under pKd 3.1 to 4
With TLPRKRMSSI [GPRC6A, Q5T6X5] the pKd was “below the threshold”.
Binder TACCHSETVV [TGFA, P01135] has a pKd of 3.97.

What follows are binders tested against HTRA1, Q92743 (assay: holdup assay). Conditions: plain residues with an end cap or a label only (N-terminal biotin on a linker: ado-ado).
Sequence of HTRA1, Q92743 (Q92743 360-477): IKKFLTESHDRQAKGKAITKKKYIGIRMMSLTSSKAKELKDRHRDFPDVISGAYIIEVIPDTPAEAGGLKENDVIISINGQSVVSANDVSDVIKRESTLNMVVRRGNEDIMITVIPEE
Set-up: key: below the threshold = too weak to quantify, mostly under pKd 3.1 to 4
For TLPRKRMSSI [GPRC6A, Q5T6X5], the pKd was “below the threshold”.
TACCHSETVV [TGFA, P01135] showed a pKd of 4.62.

These binders were tested against Inadl_5, Q8NI35 (assay: holdup assay). Conditions: plain residues with an end cap or a label only (N-terminal biotin on a linker: ado-ado).
Sequence of Inadl_5, Q8NI35 (Q8NI35 673-780): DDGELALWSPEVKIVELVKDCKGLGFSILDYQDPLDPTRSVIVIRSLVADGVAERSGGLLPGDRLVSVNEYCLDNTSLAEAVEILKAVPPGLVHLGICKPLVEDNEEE
Set-up: key: below the threshold = too weak to quantify, mostly under pKd 3.1 to 4
For TLPRKRMSSI [GPRC6A, Q5T6X5], the pKd was “below the threshold”.
Binder TACCHSETVV [TGFA, P01135] has a pKd of 3.7.

Each binder was assayed against LAP2, Q96RT1 (assay: holdup assay). Conditions: plain residues with an end cap or a label only (N-terminal biotin on a linker: ado-ado).
Sequence of LAP2, Q96RT1 (Q96RT1 other isoform, or with tags, fused parts or gaps): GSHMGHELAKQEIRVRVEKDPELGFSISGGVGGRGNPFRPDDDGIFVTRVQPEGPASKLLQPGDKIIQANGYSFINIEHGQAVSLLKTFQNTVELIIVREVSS
Set-up: key: below the threshold = too weak to quantify, mostly under pKd 3.1 to 4
For TLPRKRMSSI [GPRC6A, Q5T6X5], the pKd was 3.86.
TACCHSETVV [TGFA, P01135] was tested, and the pKd was 4.05.

The binders below were run against TJP2_1, Q9UDY2 (assay: holdup assay). Conditions: plain residues with an end cap or a label only (N-terminal biotin on a linker: ado-ado).
Sequence of TJP2_1, Q9UDY2 (Q9UDY2 24-128): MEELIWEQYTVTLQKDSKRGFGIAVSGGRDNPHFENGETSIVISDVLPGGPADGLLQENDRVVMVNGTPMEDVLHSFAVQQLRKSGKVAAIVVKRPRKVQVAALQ
Set-up: key: below the threshold = too weak to quantify, mostly under pKd 3.1 to 4
With TLPRKRMSSI [GPRC6A, Q5T6X5] the pKd was “below the threshold”.
For TACCHSETVV [TGFA, P01135], the pKd was “below the threshold”.

Each binder was assayed against Inadl_9, Q8NI35 (assay: holdup assay). Conditions: plain residues with an end cap or a label only (N-terminal biotin on a linker: ado-ado).
Sequence of Inadl_9, Q8NI35 (Q8NI35 1530-1615): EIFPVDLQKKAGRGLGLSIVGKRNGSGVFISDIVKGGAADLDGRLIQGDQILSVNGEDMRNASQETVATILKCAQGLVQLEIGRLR
Set-up: key: below the threshold = too weak to quantify, mostly under pKd 3.1 to 4
TLPRKRMSSI [GPRC6A, Q5T6X5] was tested, and the pKd was “below the threshold”.
For TACCHSETVV [TGFA, P01135], the pKd was “below the threshold”.

Each binder was assayed against Inadl_10, Q8NI35 (assay: holdup assay). Conditions: plain residues with an end cap or a label only (N-terminal biotin on a linker: ado-ado).
Sequence of Inadl_10, Q8NI35 (Q8NI35 1673-1763): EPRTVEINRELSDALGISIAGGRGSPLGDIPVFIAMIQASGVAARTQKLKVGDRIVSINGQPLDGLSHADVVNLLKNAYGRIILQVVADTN
Set-up: key: below the threshold = too weak to quantify, mostly under pKd 3.1 to 4
For TLPRKRMSSI [GPRC6A, Q5T6X5], the pKd was “below the threshold”.
In the case of TACCHSETVV [TGFA, P01135], the pKd is reported as “below the threshold”.

Each binder was assayed against T4, GRIP1_2, Q9Y3R0 (assay: holdup assay). Conditions: plain residues with an end cap or a label only (N-terminal biotin on a linker: ado-ado).
Set-up: key: below the threshold = too weak to quantify, mostly under pKd 3.1 to 4
With TLPRKRMSSI [GPRC6A, Q5T6X5] the pKd was “below the threshold”.
For TACCHSETVV [TGFA, P01135], the pKd was “below the threshold”.

What follows are binders tested against T5, MPDZ_10, O75970 (assay: holdup assay). Conditions: plain residues with an end cap or a label only (N-terminal biotin on a linker: ado-ado).
Set-up: key: below the threshold = too weak to quantify, mostly under pKd 3.1 to 4
For TLPRKRMSSI [GPRC6A, Q5T6X5], the pKd was “below the threshold”.
TACCHSETVV [TGFA, P01135] was tested, and the pKd was “below the threshold”.

Each binder was assayed against DLG4_1, P78352 (assay: holdup assay). Conditions: plain residues with an end cap or a label only (N-terminal biotin on a linker: ado-ado).
Sequence of DLG4_1, P78352 (P78352 62-152): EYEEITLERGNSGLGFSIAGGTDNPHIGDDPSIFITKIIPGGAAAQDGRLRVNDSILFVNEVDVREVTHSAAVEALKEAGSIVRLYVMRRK
Set-up: key: below the threshold = too weak to quantify, mostly under pKd 3.1 to 4
TLPRKRMSSI [GPRC6A, Q5T6X5] was tested, and the pKd was “below the threshold”.
Work on TACCHSETVV [TGFA, P01135] yielded a pKd of 4.75.

Each binder was assayed against T6, LIN7B, Q9HAP6 (assay: holdup assay). Conditions: plain residues with an end cap or a label only (N-terminal biotin on a linker: ado-ado).
Set-up: key: below the threshold = too weak to quantify, mostly under pKd 3.1 to 4
With TLPRKRMSSI [GPRC6A, Q5T6X5] the pKd was 3.75.
For TACCHSETVV [TGFA, P01135], the pKd was “below the threshold”.

What follows are binders tested against IL16_1, Q14005 (assay: holdup assay). Conditions: plain residues with an end cap or a label only (N-terminal biotin on a linker: ado-ado).
Sequence of IL16_1, Q14005 (Q14005 210-306): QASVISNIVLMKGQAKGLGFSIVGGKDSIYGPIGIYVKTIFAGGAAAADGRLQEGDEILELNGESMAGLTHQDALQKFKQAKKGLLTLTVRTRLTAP
Set-up: key: below the threshold = too weak to quantify, mostly under pKd 3.1 to 4
TLPRKRMSSI [GPRC6A, Q5T6X5] was tested, and the pKd was “below the threshold”.
For TACCHSETVV [TGFA, P01135], the pKd was 4.1.

The binders below were run against T7, DLG3_2, Q92796 (assay: holdup assay). Conditions: plain residues with an end cap or a label only (N-terminal biotin on a linker: ado-ado).
Set-up: key: below the threshold = too weak to quantify, mostly under pKd 3.1 to 4
TLPRKRMSSI [GPRC6A, Q5T6X5] gave a pKd of 4.23.
With TACCHSETVV [TGFA, P01135] the pKd was 4.74.

These binders were tested against T8, SYNJ2BP, P57105 (assay: holdup assay). Conditions: plain residues with an end cap or a label only (N-terminal biotin on a linker: ado-ado).
Set-up: key: below the threshold = too weak to quantify, mostly under pKd 3.1 to 4
TLPRKRMSSI [GPRC6A, Q5T6X5] was tested, and the pKd was “below the threshold”.
In the case of TACCHSETVV [TGFA, P01135], the pKd is reported as 4.55.

Each binder was assayed against T9, PARD3B_1, Q8TEW8 (assay: holdup assay). Conditions: plain residues with an end cap or a label only (N-terminal biotin on a linker: ado-ado).
Set-up: key: below the threshold = too weak to quantify, mostly under pKd 3.1 to 4
With TLPRKRMSSI [GPRC6A, Q5T6X5] the pKd was “below the threshold”.
In the case of TACCHSETVV [TGFA, P01135], the pKd is reported as “below the threshold”.

These binders were tested against T10, HTRA3, P83110 (assay: holdup assay). Conditions: plain residues with an end cap or a label only (N-terminal biotin on a linker: ado-ado).
Set-up: key: below the threshold = too weak to quantify, mostly under pKd 3.1 to 4
With TLPRKRMSSI [GPRC6A, Q5T6X5] the pKd was “below the threshold”.
In the case of TACCHSETVV [TGFA, P01135], the pKd is reported as “below the threshold”.

The binders below were run against T11, PTPN13_1, Q12923 (assay: holdup assay). Conditions: plain residues with an end cap or a label only (N-terminal biotin on a linker: ado-ado).
Set-up: key: below the threshold = too weak to quantify, mostly under pKd 3.1 to 4
TLPRKRMSSI [GPRC6A, Q5T6X5] was tested, and the pKd was “below the threshold”.
For TACCHSETVV [TGFA, P01135], the pKd was “below the threshold”.

The binders below were run against T12, DFNB31_1, Q9P202 (assay: holdup assay). Conditions: plain residues with an end cap or a label only (N-terminal biotin on a linker: ado-ado).
Set-up: key: below the threshold = too weak to quantify, mostly under pKd 3.1 to 4
TLPRKRMSSI [GPRC6A, Q5T6X5] gave a pKd of 3.59.
In the case of TACCHSETVV [TGFA, P01135], the pKd is reported as 4.02.
